Data as given in the supplement of paper PMC9112550, “Optimization of the antimicrobial peptide Bac7 by deep mutational scanning” (BMC Biology, 2022).

Test system: Escherichia coli TOP10
Assay: shrunken log2 fold change of peptide-encoding DNA abundance (4.5 h post-induction vs induction); higher = less antimicrobial activity (less host growth inhibition)
Details: time post-induction: 4.5 h; library: site-saturation at positions 5, 18, 19, 20
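Note: peptides expressed intracellularly from a pBAD plasmid library in pooled LB shake-flask culture, induced with 0.3% L-arabinose, DNA abundance read by NGS, three biological replicates, DESeq2 with apeglm shrinkage.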

Row | Sequence | shrunken log2 fold change
1 | RRIRGRPPRLPRPRPRPSQAPRP | 0.612
2 | RRIRERPPRLPRPRPRPVADPRP | -0.0439
3 | RRIRYRPPRLPRPRPRPYDPPRP | -0.325
4 | RRIRFRPPRLPRPRPRPGDCPRP | -0.0759
5 | RRIRERPPRLPRPRPRPRDHPRP | 0.162
6 | RRIRERPPRLPRPRPRPIDAPRP | 0.0409
7 | RRIRLRPPRLPRPRPRPRNMPRP | -0.0899
8 | RRIRSRPPRLPRPRPRPLVHPRP | -0.253
9 | RRIRARPPRLPRPRPRPPWIPRP | 0.38
10 | RRIRSRPPRLPRPRPRPWVYPRP | -0.14
11 | RRIRFRPPRLPRPRPRPRCPPRP | 0.262
12 | RRIRGRPPRLPRPRPRPHYNPRP | -0.265
13 | RRIRVRPPRLPRPRPRPCDDPRP | -0.0369
14 | RRIRWRPPRLPRPRPRPFNWPRP | -0.0369
15 | RRIRVRPPRLPRPRPRPIDNPRP | -0.447
16 | RRIRKRPPRLPRPRPRPWLFPRP | 0.202
17 | RRIRGRPPRLPRPRPRPILVPRP | 0.133
18 | RRIRRRPPRLPRPRPRPSATPRP | 0.756
19 | RRIRRRPPRLPRPRPRPANWPRP | 0.387
20 | RRIRIRPPRLPRPRPRPTMDPRP | -0.118
21 | RRIRLRPPRLPRPRPRPCATPRP | 0.331
22 | RRIRERPPRLPRPRPRPVACPRP | -0.0696
23 | RRIRMRPPRLPRPRPRPCANPRP | -0.0263
24 | RRIRVRPPRLPRPRPRPCWPPRP | 0.237
25 | RRIRHRPPRLPRPRPRPCTRPRP | 0.0237

Row | Sequence | shrunken log2 fold change
26 | RRIRVRPPRLPRPRPRPKYTPRP | -0.421
27 | RRIRSRPPRLPRPRPRPKYTPRP | -0.518
28 | RRIRVRPPRLPRPRPRPCVHPRP | -0.192
29 | RRIRHRPPRLPRPRPRPSMLPRP | -0.539
30 | RRIRQRPPRLPRPRPRPAHLPRP | 0.362
31 | RRIRRRPPRLPRPRPRPSSMPRP | -0.143
32 | RRIRNRPPRLPRPRPRPHADPRP | -0.315
33 | RRIRIRPPRLPRPRPRPCTPPRP | -0.719
34 | RRIRYRPPRLPRPRPRPYLNPRP | -0.802
35 | RRIRQRPPRLPRPRPRPGDFPRP | -0.179
36 | RRIRVRPPRLPRPRPRPRNLPRP | 0.107
37 | RRIRMRPPRLPRPRPRPNLRPRP | -0.0219
38 | RRIRPRPPRLPRPRPRPQGFPRP | -0.0446
39 | RRIRQRPPRLPRPRPRPTCPPRP | -0.0183
40 | RRIRCRPPRLPRPRPRPPTGPRP | 0.232
41 | RRIRIRPPRLPRPRPRPDPTPRP | -0.0575
42 | RRIRYRPPRLPRPRPRPYPVPRP | 0.011
43 | RRIRHRPPRLPRPRPRPCQTPRP | -0.0148
44 | RRIRTRPPRLPRPRPRPEQIPRP | 0.126
45 | RRIRVRPPRLPRPRPRPYWDPRP | 0.0849
46 | RRIRKRPPRLPRPRPRPFPVPRP | -0.288
47 | RRIRKRPPRLPRPRPRPYPTPRP | -0.0559
48 | RRIRARPPRLPRPRPRPNSVPRP | 0.0162
49 | RRIRDRPPRLPRPRPRPFLHPRP | 0.204
50 | RRIRFRPPRLPRPRPRPKKVPRP | 0.102

Row | Sequence | shrunken log2 fold change
51 | RRIRARPPRLPRPRPRPRPKPRP | 0.916
52 | RRIRCRPPRLPRPRPRPWRHPRP | -0.126
53 | RRIRNRPPRLPRPRPRPKIPPRP | -0.255
54 | RRIRWRPPRLPRPRPRPAESPRP | 0.0626
55 | RRIRCRPPRLPRPRPRPSLCPRP | -0.49
56 | RRIRPRPPRLPRPRPRPHETPRP | -0.164
57 | RRIRGRPPRLPRPRPRPVFRPRP | 0.375
58 | RRIRVRPPRLPRPRPRPWMPPRP | -0.199
59 | RRIRQRPPRLPRPRPRPTTHPRP | 0.00963
60 | RRIRMRPPRLPRPRPRPVCPPRP | 0.0129
61 | RRIRCRPPRLPRPRPRPKHRPRP | -0.212
62 | RRIRTRPPRLPRPRPRPQGHPRP | -0.122
63 | RRIRTRPPRLPRPRPRPSYIPRP | -0.511
64 | RRIRCRPPRLPRPRPRPHKLPRP | -0.436
65 | RRIRFRPPRLPRPRPRPYTEPRP | -0.631
66 | RRIRERPPRLPRPRPRPTLFPRP | 0.0897
67 | RRIRYRPPRLPRPRPRPKSTPRP | -0.634
68 | RRIRVRPPRLPRPRPRPTFVPRP | 0.0147
69 | RRIRQRPPRLPRPRPRPHSAPRP | -0.0562
70 | RRIRKRPPRLPRPRPRPSHWPRP | 0.275
71 | RRIRLRPPRLPRPRPRPCGTPRP | -0.0819
72 | RRIRWRPPRLPRPRPRPERKPRP | -0.0287
73 | RRIRMRPPRLPRPRPRPVCNPRP | -0.314
74 | RRIRRRPPRLPRPRPRPIQDPRP | 2.65
75 | RRIRHRPPRLPRPRPRPFPCPRP | -0.0311

Row | Sequence | shrunken log2 fold change
76 | RRIRFRPPRLPRPRPRPYNKPRP | -0.955
77 | RRIRERPPRLPRPRPRPPIHPRP | -0.502
78 | RRIRGRPPRLPRPRPRPFANPRP | 0.0848
79 | RRIRRRPPRLPRPRPRPRDDPRP | 0.14
80 | RRIRRRPPRLPRPRPRPGYAPRP | 0.259
81 | RRIRRRPPRLPRPRPRPTRHPRP | 0.783
82 | RRIRCRPPRLPRPRPRPDHRPRP | -0.106
83 | RRIRDRPPRLPRPRPRPPSEPRP | 0.459
84 | RRIRPRPPRLPRPRPRPPGAPRP | 0.806
85 | RRIRCRPPRLPRPRPRPTHHPRP | 0.126
86 | RRIRERPPRLPRPRPRPIIAPRP | -0.106
87 | RRIRTRPPRLPRPRPRPLNCPRP | -0.405
88 | RRIRVRPPRLPRPRPRPKECPRP | -0.0265
89 | RRIRDRPPRLPRPRPRPTHYPRP | -0.103
90 | RRIRLRPPRLPRPRPRPLKMPRP | 1.29
91 | RRIRFRPPRLPRPRPRPNFVPRP | -0.269
92 | RRIRHRPPRLPRPRPRPCWNPRP | -0.151
93 | RRIRWRPPRLPRPRPRPNGYPRP | 0.186
94 | RRIRFRPPRLPRPRPRPSSDPRP | -0.286
95 | RRIRLRPPRLPRPRPRPVFTPRP | -0.135
96 | RRIRMRPPRLPRPRPRPHPYPRP | 0.168
97 | RRIRIRPPRLPRPRPRPEYYPRP | -0.198
98 | RRIRIRPPRLPRPRPRPCYFPRP | -0.906
99 | RRIRCRPPRLPRPRPRPDKGPRP | 0.0974
100 | RRIRARPPRLPRPRPRPSVDPRP | 0.125

Row | Sequence | shrunken log2 fold change
101 | RRIRARPPRLPRPRPRPMIRPRP | -0.388
102 | RRIRCRPPRLPRPRPRPDVRPRP | -0.0317
103 | RRIRGRPPRLPRPRPRPAVIPRP | 0.232
104 | RRIRRRPPRLPRPRPRPFEPPRP | 0.152
105 | RRIRLRPPRLPRPRPRPWINPRP | -0.43
106 | RRIRVRPPRLPRPRPRPMNNPRP | -0.694
107 | RRIRWRPPRLPRPRPRPLSQPRP | 0.0157
108 | RRIRWRPPRLPRPRPRPPVGPRP | 0.167
109 | RRIRLRPPRLPRPRPRPKINPRP | -0.396
110 | RRIRMRPPRLPRPRPRPATIPRP | 0.23
111 | RRIRCRPPRLPRPRPRPFNCPRP | -1.32
112 | RRIRDRPPRLPRPRPRPFWEPRP | 0.272
113 | RRIRHRPPRLPRPRPRPFCYPRP | -0.286
114 | RRIRKRPPRLPRPRPRPYWNPRP | -0.106
115 | RRIRVRPPRLPRPRPRPCDFPRP | 0.0154
116 | RRIRYRPPRLPRPRPRPNAGPRP | -0.31
117 | RRIRLRPPRLPRPRPRPLWLPRP | -0.0303
118 | RRIRIRPPRLPRPRPRPGPMPRP | 0.0608
119 | RRIRWRPPRLPRPRPRPLIWPRP | 0.515
120 | RRIRQRPPRLPRPRPRPIEFPRP | -1.79
121 | RRIRQRPPRLPRPRPRPWTYPRP | 0.0804
122 | RRIRQRPPRLPRPRPRPHMFPRP | 0.0177
123 | RRIRWRPPRLPRPRPRPGNDPRP | 0.895
124 | RRIRDRPPRLPRPRPRPQMDPRP | -0.0397
125 | RRIRTRPPRLPRPRPRPHEYPRP | -0.17

Row | Sequence | shrunken log2 fold change
126 | RRIRLRPPRLPRPRPRPRPNPRP | 0.348
127 | RRIRQRPPRLPRPRPRPDDQPRP | 0.164
128 | RRIRMRPPRLPRPRPRPHFQPRP | 0.22
129 | RRIRARPPRLPRPRPRPPVDPRP | 0.545
130 | RRIRTRPPRLPRPRPRPHRIPRP | -0.052
131 | RRIRCRPPRLPRPRPRPPIYPRP | -0.253
132 | RRIRMRPPRLPRPRPRPAKRPRP | 1.21
133 | RRIRQRPPRLPRPRPRPSAIPRP | -0.399
134 | RRIRYRPPRLPRPRPRPIWHPRP | -1.23
135 | RRIRQRPPRLPRPRPRPATHPRP | -0.28
136 | RRIRGRPPRLPRPRPRPERRPRP | 0.277
137 | RRIRGRPPRLPRPRPRPCRSPRP | -0.0741
138 | RRIRVRPPRLPRPRPRPAERPRP | -0.0583
139 | RRIRNRPPRLPRPRPRPCFSPRP | -0.378
140 | RRIRRRPPRLPRPRPRPPLNPRP | 0.696
141 | RRIRKRPPRLPRPRPRPVGHPRP | 0.224
142 | RRIRWRPPRLPRPRPRPWCPPRP | 0.0505
143 | RRIRYRPPRLPRPRPRPKHAPRP | -0.0577
144 | RRIRYRPPRLPRPRPRPWAMPRP | -0.00232
145 | RRIRNRPPRLPRPRPRPWGGPRP | -0.113
146 | RRIRARPPRLPRPRPRPHSTPRP | 0.0355
147 | RRIRYRPPRLPRPRPRPNPPPRP | 0.0395
148 | RRIRRRPPRLPRPRPRPCIWPRP | 0.0382
149 | RRIRMRPPRLPRPRPRPWFPPRP | -0.0494
150 | RRIRVRPPRLPRPRPRPGPYPRP | -0.0621
